The nanobody polyreactivity screen of Harvey et al. (2022)

Assay: yeast display, Sf9 membrane polyspecificity reagent, FACS + sequencing; frameworks hold sequencing errors
Outline: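 Sorting gates, low and high (top ~1%), were placed on anti-HA fluorescence to track expression and on streptavidin fluorescence to track reagent binding. A clone's polyreactivity label is taken from the gate it came out of. The reagent was 10% biotinylated, detergent-solubilized Sf9 membrane, applied for 1 hour at 4 °C to galactose-induced yeast display cells.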

Sequence | polyreactivity (PSR sort gate)
QVQLVESGGGLVQAGGSLRLSCAASGSSFDWYVMGWYRQAPGKERELVAVISRSGGSTYYADSVKGRFTISRDNAKITVYLQMNSLTPEDTAVYSCGADSRSYYRDVDYWGQGTQVTVSS | low polyreactivity
QVQLVESGGGLVQAGGSLRLSCAASGSIFFVYAMGWYRQAPGKERELVAAIDWDGGSTYYADSVKGRFTISRDNAKNTVYLQMNSLKPEDTAVYYCAADAWDLYSDGQEYNYWGQGTQVTVSS | high polyreactivity
QVQLVESGGGLVQAGGSLRLSCAASGRIFDEYALGWYRQAPGKEREFVAAITYSAGSTYYADSVKGRFTISRDNAKNTVYLQMNSLKPEDTAVYDCAADRYYWWWYTYNYWGQGTQVTVSS | low polyreactivity
QVQLVESGGGLVQAGGSLRLSCAASGSTFSRYTMGWYRQAPGKERELVASITRGGSTNYADSVKGRFTISRDNAKNTVYLQMNSLKPEDTAVYYCAARTARVSRYDYWGQGTQVTVSS | high polyreactivity
QVQLVESGGGLVQAGGSLRLSCAASGSTFLNYAMGWYRQAPGKERELVAAISFSGGRTYYADSVKGRFTISRDNAKNTVYLQMNSLKPEDTAVYYCAAGGWRGHYYWGQGTQVTVSS | high polyreactivity
QVQLVESGGGLVHAGGSLRLSCAASGFTFGTYAMGWYRQAPGKEMELVSAISWKGGSTFYADSVKGRFTISRDNAKNTVYLQMNSLKPEDTAVYYCSKLLRRGGHRVFTYDYWGQGTQVTVSS | high polyreactivity
QVQLVESGGGLVQAGGSLRLSCAASGRIFRANTMGWYRQAPGKERELVAVITASGGSTYYADSVKGRFTISRDNAKNTVYLQMNSLKPEDTAVYYCNVRWSPAGTGLLDYWGQGTQVTVSS | high polyreactivity
QVQLVESGGGLVQAGGSLRLSCAASGRTFTVNAMGWYRQAPGKERELVARISYGGARTYYADSVKGRFTISRDNAKNTVYLQMNSLKPEDTAVYYSAAPGPRKYEYDYWGQGTQVTVSS | high polyreactivity
QVQLVESGGGLVQAGGSLRLSCAASGSIFADYAMGWYRQAPGKERELVSAITGSGGRTYYADSVKGRFTISRDNAKNTLYLQMNSLKPEDTAVYYCAADGLSNVRQMDYWGQGTQVTVSS | low polyreactivity
QVQLVESGGGLVQAGGSLRLSCAASGRTFFLYAMGWYRQAPGKESEFVATISYGGGSTYYADSVKGRFTISRDNAKNTVYLQMNSLKPEDTAVYYCNALNTSQYAEGTSDYDGNMGNWGQCTQVTVSS | low polyreactivity
QVQLVDSGGGLVQAGGSLRLSCAASGSIFRGYAMGWYRPAPGKESGLVAAISRDGGSTYYADSVKGRFTISRDNAKNTVYLQMNSLKPEDTAVYYCAADYVAYATYGDGDYWGQGTQVTVSS | high polyreactivity
QVQLVESGGGLVQAGGSLRLSCAASGSTFWLNAMGWYRPAPGKEWEFVAAITVRGGSTYYADSVKGRFTISRDNAKNTVYLQMNSLKPEDTAVYYCNKGSIEKTEMEYWGQGTQVTVSS | low polyreactivity
QVQLVESGGGLVQEGGSLRISCAASGRTFIGYTIGWYRQAPRKERELFAAITWNGGRTYYADSVKGRFTISRDNAKNTVYLQMNSLKPEVTAVYYCAAPRRVVIGGGDYWGQGTQVTVSS | high polyreactivity
QVKLVESGRGLVQAGGSLRLSCAASGITFISNAMAVYRQAPGKERELVAAISYRGGSTYYADSVKGRFTISRDNAKNTVYLQMNSLKPEDTAVYDCAARFHYPGGPRYYYWGQGTQVTVSS | high polyreactivity
QVQLVESGGGLVQAGGSLRLSCAASGRIFVTYAMGWYRQAPGKERELVAVISWSGGSTYYADSVKGRFTISRDNAKNTVYLQMNSLKPEDTAVYYCARGLRKVRFDYWGQGTQVTVSS | low polyreactivity
QVQLVESGGGLVQAGGSLRLSCAASGSILKGYTMGWYRQAPGKERELVAAITQTDNSTNYADSVKGRFTISRDNAKNTVYLQMNSLKPEDTAVYYCAASQLEFRRAFYYWGQGTQVTVSS | low polyreactivity
QVQLVESGGGLVQAGGSLRLSCAASGRTYSYNAMGWYRQEPGKERELVAGITYTGGRTYYADSVKGRFTISRDNAKNTVYLQMNSLKPEDTAVYYCAVGEYGHWLYRYEYWGQGTQVTVSS | high polyreactivity
QVQLVESGGGLVQAGGSLRLSCAASGSTFTVNGMGWYRQAPGKERELVASITWSGGSTYYADSVKGRFTISRDNAKNTVYLQMNSLKPEATAVYYCAADEKLYITGYDYWGQGTQVTVSS | low polyreactivity
QVQLVESGGGLVQAGGSLRLSCAASGRTFKYYTMGWYRQAPGKERELVAVIRGTGSTYYADSVKGRFTISRDNAKNTVYLQMNSLKPEDTAVYYCAVQVRRRYNYWGQGTQVTVSS | high polyreactivity
QVQLVESGGGLVQAGGSLRLSCAASGFILYGNAMGWYRQAPGKERELVAAISRRGGSTYYADSVKGRFTISRDNAKNTVYLQMNSLKPEDTALYYCAKDGPGGGTRIYDYWGQGTQVTVSS | high polyreactivity
QVQLVESGGALVQAGGSLRLSCAASAITYRYYAMGWNRQAPGKERELVATITRSGGSTYYADSVKGRFTISRDNAKNTVYLQMNSLKPEDTAVYYCAKGLYSTRYYYWGQGTQVTVSS | high polyreactivity
QVQLVESGGGLVQAGGSLRLSCAASGRIFQAYAMGWYRQAPGKERELVAAISRSGGGTYYADSVKGRFTISRDNAKNTVYLQMNCLKPEDTAVYYCNARGSTARGRGYWGQGTQVTVSS | high polyreactivity

Sequence | polyreactivity (PSR sort gate)
QVQLVESGGGLVQAGGTLRLSCAASGSTFTGNAMGWYRQAPGKERELVAAITIGGSRTYYADSVKGRFTISRDNAKNTVYLQMNSLKPEDTAVYYCAATSRGTDYWGQGTQVTVSS | high polyreactivity
QVQLEESGGGLVQAGGSLRLSCAASGRIFYAYGIGWYRQAPVKERELVAAISSGDSTNYADSVKGRFTISRDNAKNTVYFQMNSLKPEDTAVYYCAKDGSPLQLTDPTHDYEYWGQGTQVTVSS | low polyreactivity
QVQLVESGGGLVQAGGSLRLSCAASGYTFSDNAMGWYRQAPGKERELVAAITSGVSTYYADSVKGRFTISRDNAKNTVYLQMNSQKPEDTAVYYCAKEVAVFADLYQGAPYGYWGQGTQVTVSS | low polyreactivity
QVQLVESGGGLVQAGGSLRLSCAASGYTFVYYAMGWYRQAPGKERELVAAITSGGRTNYADSVKGRFTISRDNAKNTVYLQMNSLKPEDTAVYYCARLDYRSVRYGLRGQGTQVTVSS | low polyreactivity
QVQLVESGGGLVQAGGSLRLSCAASGRTFYGYAMGWYRQAPGKERELVAAITYSGGRTYYADSVKGRFTISRDNAKNTVYLQMNSLKPEDTAVYYCNTGYWYVSLGSYDYYGEYDYWGQGTQVTVSS | high polyreactivity
QVKLVESGGGLVQAGGSLRLSCAASGLIFGYNTMGWYRQAPGKERELVAAITRSGGSTYYADSVKGRFTISRDNAKNTVYLQMNSLKPEDTAVYYCAARHRSAYYHLDYWGQGTQVTVSS | high polyreactivity
QVQLVESGGGLVQAGGSLRLSCAPSGLTFKDYTMGWYRQAPGKERELVAAISKSGGRTYYADSVKGRFTISRDNAKNTVYLQMNSLKPEDTAVYYCNADSRTYRYYWSYGYWGQGTQVTVSS | high polyreactivity
QVQLVESGGGLVQAGGSLRLSCAASGRIFIAYTMGWYRPAPGKERELVAAITWNGGSTYYADSVKGRFTISRDNAKNTVYLQMNSLKPEDTAVYYWVVVSRPGPKPAREMDYWGQGTQVTVSS | low polyreactivity
QVQLQESGGGLCRRAAASSGAASGTISYLNYMGWYRQAPGKEREFVAGINNGTTTNYADSVKGRFTISRDNAKNTVYLQMNSLKLEDTAVYYCAVDPYYTFYFWYWGQGTQLTVSS | high polyreactivity
QVQLVESGGGLVQAGGSLRLTCAASGRILSHYAMVWYIQAPGKERELVATINSGGATYYADSVKGRFTISRDNAKYTVYFQMNSLKPEDTAVYYCAVDYAVSYAGWVLRYDYWGQGTQVTVSS | low polyreactivity
QVQLVESGGGLVQAGGSLRLSWAASGRIIYGYAMGWYRQAPGKERELVAAITATYYADSVKGRFTISRDNAKNTVYLQMNSLKPEDTAVYYCNAYLYPKQPLSPPDPTFEGGYWGQGTQVTVSS | low polyreactivity
QVQLVESGGGLVQAGGSLRLSCAASGRIFDYNAMRRYRQAPGKERELVAAINSGGSTYADSVKGRFTISRDNAKNTVYLQMNSLKPEDTGVYDCAKSLGQTVWEYDSWGQGTQVTVSS | low polyreactivity
QVQLVESGGGLVQAGGSLRLSCAASGYNFAYYAMGWYRQAPGTERELVAAISWSGSSTYYADSVKGRFTISRDNAKNTVYLQMNSLKPEDTAVYYCAKGYTSYNLGKYGYCGQGTQVTVSS | low polyreactivity
QVNLLDSGGGLVKAGGSLRLTCAASGSIYHPYTMGLYRQATGKETELVAAISWSGGNTNYADSVKGRFTISRDYAKNTVYLQMNSLKPEDTAVYYFAAAKRDFVEYDYWGEGTQVTVSS | low polyreactivity
QVQLVESGGGLVQEGGSLRLSCAASGRTFYTNAMGWYRPAPGKERELVAVISRGGTTFYADSVKGRFTISRDNAKNTVYLQMNSLKPEDTAVYYCAKQRPSGDSSSQMGSWGQGTQVTVSS | low polyreactivity
QVQLVESGGGLVQAGGTLRLSCAASGIIFNYYAMGWYRHAPGKERELVAAITRGGRTNYADSVKGRFTISRDNAKNTVYLQMNSLKPEDTAVYYCNAPAFYKYKSFYAHSGYDYWGQGTQVTVSS | high polyreactivity
QVQLVESGGGLVQAGGSLRLTCAASGGTFRRYTMGWYRQAPGKERELVAVISRSGGSTYYADSVKGRFTISRDNAKNTVYLQMNRLKPEDTAVYYCAVVYYNGYDWGQGTQVTVSS | high polyreactivity
QVQLVESGGGLVQAGGSLRLSCAASGFIISHYAMGWYRQAPGKERELVAAISSSGGSTYYADSVKGRFTISRDNAKNTVYLQMNSLKPEDTAVYYCAAAAGAYDYDYWGQGTQVNVSS | high polyreactivity
QVQLVESGGGLVQAGGSLSLSCAASGSTFAFNAMGWYRQAPGKERELVAAIYSDGSTDYADSVKGRFTISRDNAKNTVYLQMNSLKPEDTAVYYCAADWGWRYVLPVGWFRYGYWGQGTQVTVSS | low polyreactivity
QVQLVESGGGLVQAGGSLRLSCAASGRTFAYNAMGWYIQAPGKERELVASITSGGSTNYADSVKGRFTISRDNAKNTVYLQMNSLKPEDTAVYYCNKDGKYHRVLYDYWGQGTQVTVSS | low polyreactivity
QVQLVESGGGLVQAGGSLRLSCAASGSIFNRYTMGWYRQAPGKETELVAAISRGDTTYYADSVKGRFTISRDNAKNTVYLEMNSLKPEDTAVYYWAKAYDTTLTYNYWGQVTQVTVSS | low polyreactivity
